Data reported in paper PMC11295463, “Prefoldins are novel regulators of the unfolded protein response in artemisinin resistant Plasmodium falciparum malaria [image fx3.gif]” (The Journal of Biological Chemistry, 2024).

T1: recombinant PfPFD5 (6x-His-PfPFD5) (P. falciparum 3D7, UniProt Q8II82 1-248, RED-NHS dye label (labelled protein in MST))
T1 construct: Prefoldin subunit 5 of P. falciparum 3D7, PF3D7_1128100; CDS amplified from Pf3D7 cDNA; Resolved at 30 kDa on SDS-PAGE; also called rPfPFD5; Prefoldin subunit 5; source: E. coli BL21 (λDE3), pET-28a(+), purified (Ni-NTA)
T1 sequence: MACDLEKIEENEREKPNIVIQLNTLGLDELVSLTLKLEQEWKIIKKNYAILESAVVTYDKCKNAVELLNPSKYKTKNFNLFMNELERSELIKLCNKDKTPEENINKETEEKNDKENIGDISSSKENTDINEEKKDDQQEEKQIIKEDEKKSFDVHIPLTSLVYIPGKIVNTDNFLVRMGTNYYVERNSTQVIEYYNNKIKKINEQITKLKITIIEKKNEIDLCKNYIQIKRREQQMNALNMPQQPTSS

B1: recombinant PfPFD3 (6x-His-PfPFD3) (natural protein)
chain: MSFDDLTDNTKSVRNIPGAKFIEHVTEFLQNKNEESILRLARELLLKYKFMEHAFVSRQINTQKKIPELKDALRVVQLLEKRKKIKEKKNLETFFPVEESLYARGIVQKTDKILLWLGANVMVEFPFDEATDLLNQHLERAINLSQEMDNELLWLHEQITTTEINISRIHNYIELKKGMMGKEVDKKTEQVN
modifications: RED-NHS dye label where it was the labelled protein in MST
notes: Prefoldin subunit 3 of P. falciparum 3D7, PF3D7_0718500; CDS amplified from Pf3D7 cDNA; Resolved at 24 kDa on SDS-PAGE; Unlabelled when titrated onto labelled PfPFD5; also called rPfPFD3; Prefoldin subunit 3; source: E. coli BL21 (λDE3), pET-28a(+), purified (Ni-NTA)
B2: recombinant PfPFD6 (6x-His-PfPFD6) (natural protein)
chain: MSQEKISEIIKDISALKTSCEKLNSQLDELITQKVENEMLLEEVKVLEDDSVLHKLVGLVLVKEEKSKCYDTISRRLQYITGEIENRKKVITNSEEKLRKLFSDLEAHAGQRKIPVPQA
notes: Prefoldin subunit 6 of P. falciparum 3D7, PF3D7_0512000; CDS amplified from Pf3D7 cDNA; Resolved at 16 kDa on SDS-PAGE; also called rPfPFD6; Prefoldin subunit 6; source: E. coli BL21 (λDE3), pET-28a(+), purified (Ni-NTA)

How the values were obtained:
[1] = target: T2, PfPFD3 (Prefoldin subunit 3, PF3D7_0718500) (Plasmodium falciparum, UniProt Q8IBR6); assay: competitive microscale thermophoresis: labelled PfPFD3-PfPFD1 complex titrated with BPD; format: binding
T2 construct: recombinant 6x-His-PfPFD3 (CDS in pET-28a(+)), RED-NHS labelled; with PfPFD1 (PF3D7_1107500)

[2] = target: T1, recombinant PfPFD5 (6x-His-PfPFD5); assay: MST; Monolith NT.115; PfPFD3 or PfPFD5 labelled with RED-NHS dye, titrated with the other PfPFD subunits; 1× PBS pH 7.5, 0.01% tween-20; 10 min at room temperature; steady-state analysis; details: both partners purified
[3] = target: B1; assay: as above; details: both partners purified
[4] = target: B2; assay: SPR; AutoLab ESPRIT; recombinant PfK13 (20 μM) immobilised on a gold chip by amine coupling; PfPFD6 injected at 25 nM to 5 μM; PBS; two-state conformational change model, KD by the Integrated Rate Law equation; details: both partners purified

| Molecule | Kd [1] [nM] | Kd [2] [nM] | Kd [3] [nM] | Kd [4] [nM] |
| --- | --- | --- | --- | --- |
| OC(CCN1CCCCC1)(c1ccccc1)C1CC2C=CC1C2 (centres unmarked) [BPD, 1-{bicyclo[2.2.1]hept-5-en-2-yl}-1-phenyl-3-(piperidin-1-yl)propan-1-ol] | 1990 |  |  |  |
| recombinant PfPFD4 (6x-His-PfPFD4) (natural protein, Prefoldin subunit 4 of P. falciparum 3D7, PF3D7_0904500; CDS amplified from Pf3D7 cDNA; Resolved at 17 kDa on SDS-PAGE; also called rPfPFD4; Prefoldin subunit 4; source: E. coli BL21 (λDE3), pET-28a(+), purified (Ni-NTA)) MGDIKQNKYDLGLDMTVDDQKKIGKFTNLHYKEPLYEHKIKMMKENIMNIDSSIDEVSLAFDSNDIMLNIGDCFFKFDLDYIEEHLEDRKSEELANLNEMELEYKTKLNEKQKLKTELYAKFGNRIDLN |  | 104 | 11300 |  |
| B1 |  | 1340 |  |  |
| B2 |  | 324 | 1880 |  |
| recombinant PfPFD2 (6x-His-PfPFD2) (natural protein, Prefoldin subunit 2 of P. falciparum 3D7, PF3D7_1416900; CDS amplified from Pf3D7 cDNA; Resolved at 19 kDa on SDS-PAGE; also called rPfPFD2; Prefoldin subunit 2; source: E. coli BL21 (λDE3), pET-28a(+), purified (Ni-NTA)) METKSNVESPNISEPKESKLTYEQIEKDRVQLVSKIEELYQDVVEHKLVLEALENVPSDRRCYRMVGEVLVERTVGEIKPALMDHKNKVEQVIAECQKQLDQKNNEISNFIKSAKAGNLPGGIINGNPSEDTNNLNDKEKKSDGIIF |  | 42.4 | 682 |  |
| recombinant PfK13 (∼43 kDa) (natural protein, Construct limits are not printed. The ~43 kDa band does not fit the full-length 726 aa protein (~83 kDa). It fits the BTB-Kelch propeller region, taken by convention from the BTB domain start at …) TMIDINVGGAIFETSRHTLTQQKDSFIEKLLSGRHHVTRDKQGRIFLDRDSELFRIILNFLRNPLTIPIPKDLSESEALLKEAEFYGIKFLPFPLVFCIGGFDGVEYLNSMELLDISQQCWRMCTPMSTKKAYFGSAVLNNFLYVFGGNNYDYKALFETEVYDRLRDVWYVSSNLNIPRRNNCGVTSNGRIYCIGGYDGSSIIPNVEAYDHRMKAWVEVAPLNTPRSSAMCVAFDNKIYVIGGTNGERLNSIEVYEEKMNKWEQFPYALLEARSSGAAFNYLNQIYVVGGIDNEHNILDSVEQYQPFNKRWQFLNGVPEKKMNFGAATLSDSYIITGGENGEVLNSCHFFSPDTNEWQLGPSLLVPRFGHSVLIANI |  |  |  | 174 |
| recombinant PfPFD1 (6x-His-PfPFD1) (natural protein, Prefoldin subunit 1 of P. falciparum 3D7, PF3D7_1107500; CDS amplified from Pf3D7 cDNA; Resolved at 20 kDa on SDS-PAGE; also called rPfPFD1; Prefoldin subunit 1; source: E. coli BL21 (λDE3), pET-28a(+), purified (Ni-NTA)) MSNLYDILGKAVINKEKKDEFQNLILKSEGFIDDVLHEKLRERQKKRDEILQDLFDMEILIENLKLFVNMKDKSEVETLTSLGCDSYVYADIINKNKIFIQLGYEFYLEMTLEEAIKFLKKKINLYEEKLSYWNKQISHVKAHIQILMRAISNLT |  | 851 | 81.6 |  |
